From patent US20200223933A1 (APTEVO RESERCH AND DEVELOPMENT, published 2020)

What was measured:
[1] = target: some of the FcγR expressing cell lines; assay: flow cytometry on CHO cells stably expressing FcγR, anti-human IgG secondary (FIG. 30B)
human CD137 on cells [2] = target: T1, human CD137 on cells (human, UniProt Q07011 24-255); assay: cell-based or functional assay
human CD137 on cells [3] = target: T1, human CD137 on cells; assay: cell-based or functional assay; remark: listed apart in the source
human CD137 on cells [4] = target: T1, human CD137 on cells; assay: flow cytometry, CD8 T cells gated from CD3-stimulated human PBMC, exp 1, n=3 donors
Procedure: (§1) FACS staining and analysis of CD8 T cells: Following 48 h of incubation with or without CD3, human and cynomolgus PBMC were harvested, pooled, recounted and diluted in FACS buffer (PBS +0.5% BSA, 0.05% NaN₃) to a concentration of 5×10⁶ cells/mL. 50 μL (0.25×10⁶ cells) of cell solution was added to a 96-well FACS staining plate (Falcon #351190). Following 10 min of Fc-blocking in RT using Beriglobin (hIgG, 200 μg/mL), cells were washed in FACS buffer and then incubated for 1 h in 4° C. with 100 μL of the biotinylated ALG.APV-210 or negative control. The antibodies were added in a serial dilution starting either at 5 μg/mL titrating down in a 12 step 1/3 dilution down to 0.0003 μg/mL (exp 1) or 1 μg/mL titrating down in a 12 step 1/2 dilution down to 0.0005 μg/mL (exp 2). […] Cells were analysed for ALG.APV-210 binding using flow cytometry by gating on viable, single cells expressing CD3 and CD8. MFI values (FMO subtracted) from 2 independent experiments as well as normalized pooled data from 2 experiments and EC₅₀-values were determined and plotted using GraphPad Prism 7, non-linear regression log (agonist) vs. normalized response—variable slope, n=6 donors/group.

human CD137 on cells [5] = target: T1, human CD137 on cells; assay: flow cytometry, CD8 T cells gated from CD3-stimulated human PBMC, exp 2, n=3 donors
Procedure: as §1

[6] = target: T2, cynomolgus CD137 on cells (cynomolgus macaque, UniProt A9YYE7 24-254); assay: flow cytometry, CD8 T cells gated from CD3-stimulated cynomolgus PBMC, exp 1, n=3 donors
T2 construct: whole, on cells; also called cynomolgus macaque CD137; cynomolgus 4-1BB
T2 sequence (A9YYE7 entry or part of it): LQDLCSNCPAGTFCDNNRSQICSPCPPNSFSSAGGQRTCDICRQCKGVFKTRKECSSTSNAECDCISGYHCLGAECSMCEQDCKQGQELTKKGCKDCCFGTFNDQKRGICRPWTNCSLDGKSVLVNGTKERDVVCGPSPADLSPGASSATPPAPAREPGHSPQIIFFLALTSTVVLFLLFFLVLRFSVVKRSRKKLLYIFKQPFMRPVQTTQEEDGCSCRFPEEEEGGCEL
Procedure: (§2) Isolation and stimulation of cynomolgus PBMC: Cynomolgus PBMC were isolated from 20 mL of cynomolgus monkey blood from 3 different donors, obtained from Silabe, France by density gradient centrifugation using Lympholyte-mammal (Cedarlane labs) according to manufacturer's instructions. Non-tissue treated 96 well plates were pre-coated overnight at 4° C. with 3 μg/mL α-monkey CD3, clone FN-18 (Invitrogen #APS0301). The cynomolgus PBMC were then stimulated identically as the human PBMC described above
(§3) FACS staining and analysis of CD8 T cells: Following 48 h of incubation with or without CD3, human and cynomolgus PBMC were harvested, pooled, recounted and diluted in FACS buffer (PBS +0.5% BSA, 0.05% NaN₃) to a concentration of 5×10⁶ cells/mL. 50 μL (0.25×10⁶ cells) of cell solution was added to a 96-well FACS staining plate (Falcon #351190). […] Cells were analysed for ALG.APV-210 binding using flow cytometry by gating on viable, single cells expressing CD3 and CD8. MFI values (FMO subtracted) from 2 independent experiments as well as normalized pooled data from 2 experiments and EC₅₀-values were determined and plotted using GraphPad Prism 7, non-linear regression log (agonist) vs. normalized response—variable slope, n=6 donors/group.

[7] = target: T2, cynomolgus CD137 on cells; assay: flow cytometry, CD8 T cells gated from CD3-stimulated cynomolgus PBMC, exp 2, n=3 donors
Procedure: as §2, §3

human CD137 on cells [8] = target: T1, human CD137 on cells; assay: flow cytometry, % positive cells of CD8 T cells gated from CD3-stimulated human PBMC, exp 1, n=3 donors
Procedure: as §1

[9] = target: T2, cynomolgus CD137 on cells; assay: flow cytometry, % positive cells of CD8 T cells gated from CD3-stimulated cynomolgus PBMC, exp 1, n=3 donors
Procedure: as §2, §3

human CD137 on cells [10] = target: T1, human CD137 on cells; assay: flow cytometry, normalized % positive cells of CD8 T cells from CD3-stimulated human PBMC, pooled data of 2 exp, n=6 donors
Procedure: as §1

T1 sequence (Q07011 24-255 limits assumed): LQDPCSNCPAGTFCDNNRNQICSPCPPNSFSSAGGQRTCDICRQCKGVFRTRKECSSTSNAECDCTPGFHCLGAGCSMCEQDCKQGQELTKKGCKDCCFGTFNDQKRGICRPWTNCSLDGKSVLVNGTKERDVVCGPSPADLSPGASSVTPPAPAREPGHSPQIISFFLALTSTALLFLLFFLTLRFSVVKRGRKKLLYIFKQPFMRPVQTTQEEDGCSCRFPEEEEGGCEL

## control human IgG1 molecule (antibody)
[1]
  concentration at which significant binding was observed: 4 nM

B1: ALG.APV-210 (bispecific antibody)
chain: EVQLLESGGGLVQPGGSLRLSCAASGFTFSHGSMYWVRQAPGKGLEWVSSISSGSGSTYYADSVKGRFTISHDNSKNTLYLQMNSLRAEDTAVYYCARSSYYGSYYSIDYWGQGTLVTVSSGGGGSGGGGSGGGGSGGGGSDIQMTQSPSSLSASVGDRVTITCRASQSISSYLNWYQQKPGKAPKLLIYAASSLQSGVPSRFSGSGSGTDFTLTISSLQPEDFATYYCQQYYDNLPTFGQGTKLEIKEPKSSDKTHTCPPCPAPEAAGAPSVFLFPPKPKDTLMISRTPEVTCVVVDVSHEDPEVKFNWYVDGVEVHNAKTKPREEQYNSTYRVVSVLTVLHQDWLNGKEYKCAVSNKALPAPIEKTISKAKGQPREPQVYTLPPSRDELTKNQVSLTCLVKGFYPSDIAVEWESNGQPENNYKTTPPVLDSDGSFFLYSKLTVDKSRWQQGNVFSCSVMHEALHNHYTQKSLSLSPGSGGGGSGGGGSGGGGSPSEVQLLESGGGLVQPGGSLRLSCAASGFTFSSYAMSWVRQAPGKCLEWVSAISGSGGSTYYADSVKGRFTISRDNSKNTLYLQMNSLRAEDTAVYYCARYYGGYYSAWMDYWGQGTLVTVSSGGGGSGGGGSGGGGSGGGGSDIQMTQSPSSLSASVGDRVTITCRASQSISSFLNWYQQKPGKAPKLLIYAASSLQSGVPSRFSGSGSGTDFTLTISSLQPEDSATYYCQQTYGYLHTFGCGTKLEIKR
Human CD137 on cells [2]
  maximal IFNγ release with CT26-h5T4^low cells relative to CT26-h5T4^high cells: 82%
  maximal IFNγ release with CT26-wt cells relative to CT26-h5T4^high cells: 7%
Human CD137 on cells [3]
  EC50 (nM), IFNγ release of human CD8 T cells with CT26-h5T4^high cells: 0.41 nM
  EC50 (nM), IFNγ release of human CD8 T cells with CT26-h5T4^low cells: 0.24 nM

B2: biotinylated ALG.APV-210 (bispecific antibody)
chain: EVQLLESGGGLVQPGGSLRLSCAASGFTFSHGSMYWVRQAPGKGLEWVSSISSGSGSTYYADSVKGRFTISHDNSKNTLYLQMNSLRAEDTAVYYCARSSYYGSYYSIDYWGQGTLVTVSSGGGGSGGGGSGGGGSGGGGSDIQMTQSPSSLSASVGDRVTITCRASQSISSYLNWYQQKPGKAPKLLIYAASSLQSGVPSRFSGSGSGTDFTLTISSLQPEDFATYYCQQYYDNLPTFGQGTKLEIKEPKSSDKTHTCPPCPAPEAAGAPSVFLFPPKPKDTLMISRTPEVTCVVVDVSHEDPEVKFNWYVDGVEVHNAKTKPREEQYNSTYRVVSVLTVLHQDWLNGKEYKCAVSNKALPAPIEKTISKAKGQPREPQVYTLPPSRDELTKNQVSLTCLVKGFYPSDIAVEWESNGQPENNYKTTPPVLDSDGSFFLYSKLTVDKSRWQQGNVFSCSVMHEALHNHYTQKSLSLSPGSGGGGSGGGGSGGGGSPSEVQLLESGGGLVQPGGSLRLSCAASGFTFSSYAMSWVRQAPGKCLEWVSAISGSGGSTYYADSVKGRFTISRDNSKNTLYLQMNSLRAEDTAVYYCARYYGGYYSAWMDYWGQGTLVTVSSGGGGSGGGGSGGGGSGGGGSDIQMTQSPSSLSASVGDRVTITCRASQSISSFLNWYQQKPGKAPKLLIYAASSLQSGVPSRFSGSGSGTDFTLTISSLQPEDSATYYCQQTYGYLHTFGCGTKLEIKR
modifications: biotinylated (sites not given)
notes: also called ALG.APV-210 (biotinylated for FACS detection)
Human CD137 on cells [4]
  EC50 (read off the curve): ~0.3 nM
Human CD137 on cells [5]
  EC50 (read off the curve): ~0.2 nM
[6]
  EC50 (read off the curve): ~0.3 nM
[7]
  EC50 (read off the curve): ~0.2 nM
Human CD137 on cells [8]
  EC50 (read off the curve): ~0.03 nM
[9]
  EC50 (read off the curve): ~0.02 nM
Human CD137 on cells [10]
  EC50: 0.027 nM
